Positions count from the first letter of the chain named.

In assay [1] the target is rat CD5 antigen present on rat T cells (rat) (UniProt P51882). Put plainly: flow cytometry, rat lymph node cells 3 h after 0.5 mg/kg i.v.
Assay [2] shares this target. Put plainly: flow cytometry, rat blood cells 3 h after 0.5 mg/kg i.v. Background: Flow cytometry measures light scatter and fluorescence of single cells or particles in a stream.
Assay [3] shares this target. Put plainly: flow cytometry, rat spleen cells 3 h after 0.5 mg/kg i.v.
For assay [4], the target named is T1, human CD5 cell differentiation marker (human, UniProt P06127 25-495).
T1 construct: whole, on cells; Cell-surface CD5; also called CD5 antigen; gp67
T1 sequence (looked up): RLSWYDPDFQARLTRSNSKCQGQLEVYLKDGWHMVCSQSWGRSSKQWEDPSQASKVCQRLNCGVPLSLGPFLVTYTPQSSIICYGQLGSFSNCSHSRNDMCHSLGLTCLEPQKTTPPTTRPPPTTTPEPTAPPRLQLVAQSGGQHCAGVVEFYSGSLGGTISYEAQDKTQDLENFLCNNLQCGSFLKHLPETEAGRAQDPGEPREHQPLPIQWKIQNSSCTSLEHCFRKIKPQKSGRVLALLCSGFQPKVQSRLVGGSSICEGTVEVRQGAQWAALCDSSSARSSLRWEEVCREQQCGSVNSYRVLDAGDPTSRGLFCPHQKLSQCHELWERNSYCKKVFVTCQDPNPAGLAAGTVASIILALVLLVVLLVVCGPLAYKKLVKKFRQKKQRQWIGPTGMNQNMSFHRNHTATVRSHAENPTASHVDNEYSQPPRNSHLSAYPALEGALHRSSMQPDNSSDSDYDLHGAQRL
Put plainly: competition with 0.1 nM ^125I-cH65 IgG on Molt-4M cells, fitted with MacLigand. On the procedure: Competitive binding was performed as follows: 100 μl of Molt-4M cells were washed two times in ice-cold DHB binding buffer (Dubellco's modified Eagle's medium (Gibco, 320-1965PJ), 1.0% BSA and 10 mM Hepes at pH 7.2.-7.4). Cells were resuspended in the same buffer, plated into 96 v-bottomed wells (Costar) at 3×10⁵ cells per well and pelleted at 4° C. by centrifugation for 5 min at 1,000 rpm using a Beckman JS 4.2 rotor; 50 μl of 2×-concentrated 0.1 nM ¹²⁵I-cH65 IgG in DHB was then added to each well and competed with 50 μl of 2×-concentrated cH65 IgG or humanized antibody in DHB at final antibody concentrations from 100 nM to 0.0017 nM. Humanized antibody was obtained from culture supernatants of Sp2/0 clone C1718 which expresses he3 IgG. The concentration of the antibody in the supernatants was established by ELISA using a chimeric antibody as a standard. The concentration of the antibody in the purified preparation was determined by […] to proceed at 4° C. for 5 hrs and was terminated by washing cells three times with 200 Al of DHB binding buffer by centrifugation for 5 min at 1,000 rpm. All buffers and operations were at 4° C. Radioactivity was determined by solubilizing cells in 100 μl of 1.0 M NaOH and counting in a Cobra II auto gamma counter (Packard). Data from binding experiments were analyzed by the weighted nonlinear least squares curve fitting program, MacLigand, a Macintosh version of the computer program “Ligand” from Munson, Analyt. Biochem., 107:220 (1980). Objective statistical criteria (F, test, extra sum squares principle) were used to evaluate goodness of fit and for discriminating between models. Nonspecific binding was treated as a parameter subject to error and was fitted simultaneously with other parameters.

Assay [5] deals with T1, human CD5 cell differentiation marker. Put plainly: FACS-based competitive assay, experiment 1; reference mouse H65 = 100%.
The target is the same in assay [6]. Put plainly: FACS-based competitive assay, experiment 3; reference mouse H65 = 100%.
Assay [7] shares this target. Put plainly: FACS-based competitive assay, experiment 2; reference mouse H65 = 100%.
For assay [8] the target is unchanged. Put plainly: FACS-based competitive assay, mean of 3 experiments ± SD; reference mouse H65 = 100%.

Sequence of rat CD5 antigen present on rat T cells (rat) (P51882 24-491): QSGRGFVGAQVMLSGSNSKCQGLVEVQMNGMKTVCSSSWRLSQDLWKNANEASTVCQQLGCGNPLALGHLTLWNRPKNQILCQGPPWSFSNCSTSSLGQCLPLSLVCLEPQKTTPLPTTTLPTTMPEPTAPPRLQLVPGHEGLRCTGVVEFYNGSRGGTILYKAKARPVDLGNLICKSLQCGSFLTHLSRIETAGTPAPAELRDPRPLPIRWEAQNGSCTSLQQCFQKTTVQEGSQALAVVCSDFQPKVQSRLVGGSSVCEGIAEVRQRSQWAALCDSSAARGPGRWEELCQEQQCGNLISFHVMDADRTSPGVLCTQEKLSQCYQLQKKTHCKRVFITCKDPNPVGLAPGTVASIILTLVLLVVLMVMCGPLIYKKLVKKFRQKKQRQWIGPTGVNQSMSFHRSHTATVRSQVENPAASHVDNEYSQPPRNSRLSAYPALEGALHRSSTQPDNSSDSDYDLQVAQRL

Consider OX19 MoAb (antibody), for which the results for the % of CD4 cells positive for surface-bound mouse IgG1 (CD4/mIgG1) in assay [1], in assay [2] and in assay [3] were 96.2%, 96.2% and 84.8%, respectively. Further, the % of CD8 cells positive for surface-bound mouse IgG1 (CD8/mIgG1) amounted to 96.8% in assay [1], 70.2% in assay [2] and 73.6% in assay [3].

B1: he3 Fab (Fab, V domains shown)
VH: EIQLVQSGGGLVKPGGSVRISCAASGYTFTNYGMNWVRQAPGKGLEWMGWINTHTGEPTYADSFKGRFTFSLDDSKNTAYLQINSLRAEDTAVYFCTRRGYDWYFDVWGQGTTVTVSS
VL: DIQMTQSPSSLSASVGDRVTITCRASQDINSYLSWFQQKPGKAPKTLIYRANRLESGVPSRFSGSGSGTDYTLTISSLQYEDFGIYYCQQYDESPWTFGGGTKLEIK
notes: Fab (he3 kappa and Fd) expressed in E. coli E104 from pING4628; also called Moderate-Risk Fab
As a reminder, the Kd is the concentration at which binding is half-saturated. The low end stands for a tighter complex, the high end for a looser complex. Turning to B1, the dissociation constant Kd in assay [4] worked out at 2.2 nM.

B2: chimeric H65 IgG (antibody, V domains shown)
VH: QIQLVQSGPELKKPGETVKISCKASGYTFTNYGMNWVKQAPGKGLRWMGWINTHTGEPTYADDFKGRFAFSLETSASTAYLQINNLKNEDTATYFCTRRGYDWYFDVWGAGTTVTVSS
VL: DIKMTQSPSSMYASLGERVTITCKASQDINSYLSWFQQKPGKSPKTLIYRANRLVDGVPSRFSGSGSGQDYSLTISSLDYEDMGIYYCQQYDESPWTFGGGTKLEIK
notes: Light and heavy chain each consist of unmodified mouse V/J-segments fused to a human C-segment (human kappa / human gamma by the ELISA used); also called purified cH65 IgG
Molecule B2 gave a Kd in assay [4] of 2.3 nM. The “cH65 Affinity Relative to H65 (100%)” value was found to be 113% in assay [5], 96.3% in assay [6], 106% in assay [7] and 105% in assay [8].

B3: chimeric H65 Fab (Fab, V domains shown)
VH: B2 VH
VL: B2 VL
notes: Fab of the chimeric H65 antibody; also called Chimeric Fab
In assay [4], B3 yielded a Kd of 18.4 nM.

B4: low risk humanized H65 (he1) IgG (antibody, V domains shown)
VH: B1 VH with E1Q, G9P, V12K, R38K, E46R, S63D, D74T, N77S, V93T
VL: B1 VL with L11M, V15L, A43S, E55V, S56D
notes: Whole IgG with human constant regions (detected with anti-human kappa and anti-human gamma), expressed transiently in CHO-K1; also called he1 H65 antibody; hH65
As to B4, in assay [4], the Kd worked out at 2.1 nM.

B5: low-risk he1 Fab (Fab, V domains shown)
VH: B1 VH with E1Q, G9P, V12K, R38K, E46R, S63D, D74T, N77S, V93T
VL: B1 VL with L11M, V15L, A43S, E55V, S56D
notes: also called hel Fab; Low-Risk Fab
In the case of B5, in assay [4], the equilibrium dissociation constant (Kd) was determined as 14.3 nM. Compared with the last molecule, the Kd is about 6.8-fold higher.

These data come from patent publication US20030229207A1 (published 2003).
